Changes are numbered by the printed parent chain. Each block holds one binder with its values, some of them ahead of it.
What was measured:
Settings in all cases: both partners purified
[1] = target: T1, recombinant human CD3ε-CD3δ heterodimeric protein (CD3εδ) (Homo sapiens); experiment: SPR; Biacore T200, 37 °C, pH 7.4, PB-P+; antibody captured (630 RU) by anti-mouse IgG (Fc) antibody on a CM4 chip; human CD3εδ as analyte, 18.8-19,200 nmol/L (mHIT3a, mOKT3) or 75-76,800 nmol/L (m12F6); steady state model
T1 construct: human CD3ε of the recombinant CD3εδ heterodimer; human CD3δ of the recombinant CD3εδ heterodimer; source: in-house prepared
T1 chain 1: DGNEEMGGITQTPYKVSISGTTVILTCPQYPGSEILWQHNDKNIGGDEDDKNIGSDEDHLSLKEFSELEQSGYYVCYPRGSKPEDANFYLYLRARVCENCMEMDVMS
T1 chain 2: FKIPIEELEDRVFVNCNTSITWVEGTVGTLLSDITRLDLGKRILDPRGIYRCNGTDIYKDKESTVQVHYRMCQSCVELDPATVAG

[2] = target: T2, recombinant human HER2 (Sino Biological, 10004-H08H) (Homo sapiens, UniProt P04626); experiment: SPR; Biacore T200, 37 °C, pH 7.4, PB-P+ (0.05 mol/L Na-phosphate, 0.15 mol/L NaCl, 0.05% P-20); antibody captured (200 RU) by anti-mouse IgG (Fc) antibody on a CM4 chip; human HER2 as analyte, 6.3-100 nmol/L; 1:1 binding model
T2 construct: human epidermal growth factor receptor 2 (HER2), recombinant; also called human epidermal growth factor receptor 2; source: bought: Sino Biological

[3] = target: T1, recombinant human CD3ε-CD3δ …; experiment: SPR; Biacore T200, 37 °C, pH 7.4, PB-P+; antibody captured (630 RU) by anti-mouse IgG (Fc) antibody on a CM4 chip; human CD3εδ as analyte, 1.2-4800 nmol/L; 1:1 binding model (mUCHT1, mSP34)

B3: m2C4 mIgG1, homodimeric antibody without FAST-Ig mutations (antibody, V domains shown)
VH: EVQLQQSGPELVKPGTSVKISCKASGFTFTDYTMDWVKQSHGKSLEWIGDVNPNSGGSIYNQRFKGKASLTVDRSSRIVYMELRSLTFEDTAVYYCARNLGPSFYFDYWGQGTTLTVSS
VL: DTVMTQSHKIMSTSVGDRVSITCKASQDVSIGVAWYQQRPGQSPKLLIYSASYRYTGVPDRFTGSGSGTDFTFTISSVQAEDLAVYYCQQYYIYPYTFGGGTKLEIK
notes: VH of the original mouse antibody m2C4; mouse IgG1 (mIgG1) heavy chain constant region; numbers count on: Eu numbering; VL of the original mouse antibody m2C4; mouse kappa light chain constant region (CL); Whole IgG of one HC and one LC; also called anti-HER2; H1L1H1L1; source: Expi293F, transiently expressed, purified (Ab-Capcher MAG2 or MonoSpin ProG); copies: 2 + 2
Kd [2]: 0.759 nM

B4: m2C4 mIgG1 V1+C19, homodimeric antibody with FAST-Ig V1+C19 mutations (antibody, V domains shown)
VH: B3 VH with Q39K
VL: B3 VL with Q38E
notes: VH of m2C4; mouse IgG1 (mIgG1) heavy chain constant region; K147 kept; numbers count on: Eu numbering; VL of m2C4; mouse kappa light chain constant region (CL); numbers count on: Kabat numbering; Whole IgG of one HC and one LC; also called anti-HER2; H1L1H1L1; source: Expi293F, transiently expressed, purified (Ab-Capcher MAG2 or MonoSpin ProG); copies: 2 + 2
Kd [2]: 0.784 nM

B7: mSP34 mIgG2a, homodimeric antibody without FAST-Ig mutations (antibody, V domains shown)
VH: EVQLVESGGGLVQPKGSLKLSCAASGFTFNTYAMNWVRQAPGKGLEWVARIRSKYNNYATYYADSVKDRFTISRDDSQSILYLQMNNLKTEDTAMYYCVRHGNFGNSYVSWFAYWGQGTLVTVSA
VL: QAVVTQESALTTSPGETVTLTCRSSTGAVTTSNYANWVQEKPDHLFTGLIGGTNKRAPGVPARFSGSLIGDKAALTITGAQTEDEAIYFCALWYSNLWVFGGGTKLTVL
notes: VH of the original mouse antibody mSP34; mouse IgG2a (mIgG2a) heavy chain constant region; numbers count on: Eu numbering; VL (lambda) of the original mouse antibody mSP34; mouse lambda light chain constant region (CL); Whole IgG of one HC and one LC; also called anti-CD3; H2L2H2L2; source: Expi293F, transiently expressed, purified (Ab-Capcher MAG2, MonoSpin ProA or MonoSpin ProG); copies: 2 + 2
Kd [3]: 16 nM

B8: m4D5 mIgG1, homodimeric antibody without FAST-Ig mutations (antibody, V domains shown)
VH: QVQLQQSGPELVKPGASLKLSCTASGFNIKDTYIHWVKQRPEQGLEWIGRIYPTNGYTRYDPKFQDKATITADTSSNTAYLQVSRLTSEDTAVYYCSRWGGDGFYAMDYWGQGASVTVSS
VL: DIVMTQSHKFMSTSVGDRVSITCKASQDVNTAVAWYQQKPGHSPKLLIYSASFRYTGVPDRFTGSRSGTDFTFTISSVQAEDLAVYYCQQHYTTPPTFGGGTKVEIK
notes: VH of the original mouse antibody m4D5; mouse IgG1 (mIgG1) heavy chain constant region; numbers count on: Eu numbering; VL of m4D5; mouse kappa light chain constant region (CL); Whole IgG of one HC and one LC; also called anti-HER2; H1L1H1L1; source: Expi293F, transiently expressed, purified (Ab-Capcher MAG2 or MonoSpin ProG); copies: 2 + 2
Kd [2]: 1.03 nM

B10: m4D5 mIgG1 V1+C19, homodimeric antibody with FAST-Ig V1+C19 mutations (antibody, V domains shown)
VH: B8 VH with Q39K
VL: B8 VL with Q38E
notes: VH of m4D5; mouse IgG1 (mIgG1) heavy chain constant region; K147 kept; numbers count on: Eu numbering; VL of m4D5; mouse kappa light chain constant region (CL); numbers count on: Kabat numbering; Whole IgG of one HC and one LC; also called anti-HER2; H1L1H1L1; source: Expi293F, transiently expressed, purified (Ab-Capcher MAG2 or MonoSpin ProG); copies: 2 + 2
Kd [2]: 1.27 nM

Second part, the binder after the results:

Kd [1]: 16800 nM
B1: m12F6 mIgG1, homodimeric antibody without FAST-Ig mutations (antibody, V domains shown)
VH: QVQLQQSGAELARPGASVKMSCKASGYTFTSYTMHWVKQRPGQGLEWIGYINPSSGYTKYNQKFKDKATLTADKSSSTAYMQLSSLTSEDSAVYYCARWQDYDVYFDYWGQGTTLTVSS
VL: QIVLSQSPAILSASPGEKVTMTCRASSSVSYMHWYQQKPGSSPKPWIYATSNLASGVPARFSGSGSGTSYSLTISRVEAEDAATYYCQQWSSNPPTFGGGTKLETK
notes: VH of the original mouse antibody m12F6; mouse IgG1 (mIgG1) heavy chain constant region; numbers count on: Eu numbering; VL of the original mouse antibody m12F6; mouse kappa light chain constant region (CL); Whole IgG of one HC and one LC; also called anti-CD3; H2L2H2L2; source: Expi293F, transiently expressed, purified (Ab-Capcher MAG2 or MonoSpin ProG); copies: 2 + 2

Kd [2]: 1.08 nM
B2: m2C4 mIgG2a, homodimeric antibody without FAST-Ig mutations (antibody, V domains shown)
VH: B3 VH
VL: B3 VL
notes: VH of the original mouse antibody m2C4; mouse IgG2a (mIgG2a) heavy chain constant region; numbers count on: Eu numbering; VL of the original mouse antibody m2C4; mouse kappa light chain constant region (CL); Whole IgG of one HC and one LC; also called anti-HER2; H1L1H1L1; source: Expi293F, transiently expressed, purified (Ab-Capcher MAG2, MonoSpin ProA or MonoSpin ProG); copies: 2 + 2

Kd [2]: 1.36 nM
B5: m2C4 mIgG2a V1+C19, homodimeric antibody with FAST-Ig V1+C19 mutations (antibody, V domains shown)
VH: B3 VH with Q39K
VL: B3 VL with Q38E
notes: VH of m2C4; mouse IgG2a (mIgG2a) heavy chain constant region; K147 kept; numbers count on: Eu numbering; VL of m2C4; mouse kappa light chain constant region (CL); numbers count on: Kabat numbering; Whole IgG of one HC and one LC; also called anti-HER2; H1L1H1L1; source: Expi293F, transiently expressed, purified (Ab-Capcher MAG2, MonoSpin ProA or MonoSpin ProG); copies: 2 + 2

Kd [3]: 56.9 nM
B6: mSP34 mIgG1 V1+C19, homodimeric antibody with FAST-Ig V1+C19 mutations (antibody, V domains shown)
VH: B7 VH with Q39E
VL: B7 VL with E40K
notes: VH of mSP34; mouse IgG1 (mIgG1) heavy chain constant region; numbers count on: Eu numbering; VL (lambda) of mSP34; mouse lambda light chain constant region (CL); numbers count on: Kabat numbering; Whole IgG of one HC and one LC; also called anti-CD3; H2L2H2L2; source: Expi293F, transiently expressed, purified (Ab-Capcher MAG2 or MonoSpin ProG); copies: 2 + 2

Kd [2]: 0.96 nM
B9: m4D5 mIgG2a V1+C19, homodimeric antibody with FAST-Ig V1+C19 mutations (antibody, V domains shown)
VH: B8 VH with Q39K
VL: B8 VL with Q38E
notes: VH of m4D5; mouse IgG2a (mIgG2a) heavy chain constant region; K147 kept; numbers count on: Eu numbering; VL of m4D5; mouse kappa light chain constant region (CL); numbers count on: Kabat numbering; Whole IgG of one HC and one LC; also called anti-HER2; H1L1H1L1; source: Expi293F, transiently expressed, purified (Ab-Capcher MAG2, MonoSpin ProA or MonoSpin ProG); copies: 2 + 2

Kd [2]: 1.14 nM
B11: m4D5 mIgG2a, homodimeric antibody without FAST-Ig mutations (antibody, V domains shown)
VH: B8 VH
VL: B8 VL
notes: VH of the original mouse antibody m4D5; mouse IgG2a (mIgG2a) heavy chain constant region; numbers count on: Eu numbering; VL of m4D5; mouse kappa light chain constant region (CL); Whole IgG of one HC and one LC; also called anti-HER2; H1L1H1L1; source: Expi293F, transiently expressed, purified (Ab-Capcher MAG2, MonoSpin ProA or MonoSpin ProG); copies: 2 + 2
